In assay [1] the target is MLL transactivation domain (Homo sapiens) (UniProt Q03164). The settings on record: cited from earlier work.
The target in assay [2] is KIX domain (residues 586-672) of mouse CBP, wild type (mouse) (UniProt P45481). Put plainly: ITC. On the technique in general: In ITC the heat of successive injections is recorded.
Assay [3] deals with KIX domain (residues 586-672) of mouse CBP, L628A (mouse) (UniProt P45481). Put plainly: NMR titration.
In assay [4] the target is KIX domain (residues 586-672) of mouse CBP, wild type (mouse) (UniProt P45481). The assay can be described thus: NMR titration.

Broadly, the Kd is the free concentration of one partner at which half of the binding sites on the other are occupied at equilibrium, for simple one-to-one binding. For CBP KIX (from UniProt P45481), the Kd in assay [1] is 2800 nM.

Regarding “Human MLL transactivation domain (2842-2469 as printed) (domain or fragment)”, in assay [2], the Kd stood at 2100 nM. Moreover, in assay [3], the Kd1 (primary site, two-site model) amounted to 220 µM; the Kd2 (secondary site, two-site model) was 1.63 mM; the percent of KIX in the MLL-bound form (1:2 KIX:MLL) worked out at 74%. Moreover, in assay [4], the Kd2 (secondary site, two-site model) was 920 µM and the percent of KIX in the MLL-bound form (1:1 KIX:MLL) was found to be 94%.

The values above are taken from publication PMC2993637.
